According to patent publication US20040156851A1, “HMGB1 combination therapies” (Critical Therapeutics, Inc., priority 2002, published 2004):

Experiments:
[1] = test system: RAW 264.7 cells; assay: TNF release from RAW 264.7 cells stimulated with HMGB1, mutants or B box peptides (L929 cytotoxicity bioassay); assay type: cell-based, murine
Method: Murine macrophage-like RAW 264.7 cells (American Type Culture Collection, Rockville, Md.) were cultured in RPMI 1640 medium (Life Technologies, Grand Island, N.Y.) supplemented with 10% fetal bovine serum (Gemini, Catabasas, Calif.), penicillin and streptomycin (Life Technologies) and were used at 90% confluence in serum-free Opti-MEM I medium (Life Technologies, Grand Island, N.Y.). […] Polymyxin B was not used in experiments of synthetic peptide studies.
TNF release was measured by a standard murine fibroblast L929 (ATCC, American Type Culture Collection, Rockville, Md.) cytotoxicity bioassay (Bianchi et al., Journal of Experimental Medicine 183:927-936, 1996) with the minimum detectable concentration of 30 pg/ml. Recombinant mouse TNF was obtained from R&D system Inc., (Minneapolis, Minn.). Murine fibroblast L929 cells (ATCC) were cultured in DMEM (Life Technologies, Grand Island, N.Y.) supplemented with 10% fetal bovine serum (Gemini, Catabasas, Calif.), penicillin (50 units/ml) and streptomycin (50 μg/ml) (Life Technologies) in a humidified incubator with 5% CO2.
The effect of the mutants on TNF release from Murine macrophage-like RAW 264.7 cells (ATCC) was carried out as follows. RAW 264.7 cells were cultured in RPMI 1640 medium (Life Technologies, Grand Island, N.Y.) supplemented with 10% fetal bovine serum (Gemini, Catabasas, Calif.), penicillin and streptomycin (Life Technologies). Polymyxin (Sigma, St. Louis, Mo.) was added at 100 units/ml to suppress the activity of any contaminating LPS. Cells were incubated with 1 μg/ml of full length (wild-type) HMGB1 and each HMGB1 mutant protein in Opti-MEM I medium for 8 hours. Conditioned supernatants (containing TNF which had been released from the cells) were collected and TNF released from the cells was measured by a standard murine fibroblast L929 (ATCC) cytotoxicity bioassay (Bianchi et al., supra) with the minimum detectable concentration of 30 pg/ml. Recombinant mouse TNF was obtained from R & D Systems Inc., (Minneapolis, Minn.) and used as control in these experiments. Data in FIG. 1 are all presented as mean±SEM unless otherwise indicated. (N=6−10).
(§1) To further examine the effect of HMGB1 B box on cytokine production, varying amounts of HMGB1 B box were evaluated for the effects on TNF, IL-1B, and IL-6 production in murine macrophage-like RAW 264.7 cells. Conditioned media were harvested and measured for TNF, IL-1β and IL-6 levels. TNF levels were measured as described herein, and IL-1β and IL-6 levels were measured using the mouse IL-1β and IL-6 enzyme-linked immunosorbent assay (ELISA) kits (R&D System Inc., Minneapolis, Minn.) and N>5 for all experiments.
The kinetics of B box-induced TNF release were also examined. TNF release and TNF mRNA expression were measured in RAW 264.7 cells induced by B box polypeptide or GST tag polypeptide only (used as a control (vector)) (10 μg/ml) for 0 to 48 hours. Supernatants were analyzed for TNF protein levels by an L929 cytotoxicity assay (N=3-5) as described herein. For mRNA measurement, cells were plated in 100 mm plates and treated in Opti-MEM I medium containing B box polypeptide or the vector alone for 0, 4, 8, or 24 hours, as indicated in FIG. 2D. The vector only sample was assayed at the 4 hour time point. Cells were scraped off the plate and total RNA was isolated using the RNAzol B method in accordance with the manufacturer's instructions (Tel-Test “B”, Inc., Friendswood, Tex.). TNF (287 bp) was measured by RNase protection assay (Ambion, Austin, Tex.). Equal loading and the integrity of RNA was verified by ethidium bromide staining of the RNA sample on an agarose-formaldehyde gel. […] TNF mRNA expression was maximal at 4 hours and decreased at 8 and 24 hours. […] A similar study was carried out measuring TNF protein released from RAW 264.7 cells 0, 4, 8, 24, 32 or 48 hours after administration of B box or vector only (GST tag), using the L929 cytotoxicity assay described herein. […]

[2] = test system: RAW 264.7 cells; assay: IL-6 release from RAW 264.7 cells (ELISA); assay type: cell-based, murine; conditions: B box 0-10 μg/ml, 8 hours (FIG. 2C)
Method: as §1

[3] = test system: C3H/HeJ mice; assay: Lethality and histology in C3H/HeJ mice; assay type: in vivo; conditions: 8 hours after administration
[4] = test system: RAW 264.7 cells; assay: 125I-HMGB1 cell surface binding to RAW 264.7 cells; set-up: species or system murine; conditions: 4° C., specific binding (FIG. 5A)
Method: Purified HMGB1 protein (10 μg) was radiolabeled with 0.2 mCi of carrier-free ^125I (NEN Life Science Products Inc., Boston, Mass.) using Iodo-beads (Pierce, Rockford, Ill.) according to the manufacturer's instructions. ^125I-HMGB1 protein was separated from un-reacted ^125I by gel chromatography columns (P6 Micro Bio-Spin Chromatography Columns, Bio-Rad Laboratories, Hercules, Calif.) previously equilibrated with 300 mM sodium chloride, 17.5 mM sodium citrate, pH 7.0, and 0.1% bovine serum albumin (BSA). The specific activity of the eluted HMGB1 was about 2.8×10^6 cpm/μg protein. Cell surface binding studies were performed as previously described (Yang et al., Am. J. Physiol. 275:C675-C683, 1998). […] The radioactivity in the lysate was then measured using a gamma counter. Specific binding was determined as total binding minus the radioactivity obtained in the presence of an excess amount of unlabeled HMGB1 or A box proteins.
To determine whether the HMGB1 A box acts as an antagonist by displacing HMGB1 binding, ^125I-labeled —HMGB1 was added to macrophage cultures and binding was measured at 4° C. after 2 hours. Binding assays in RAW 264.7 cells were performed as described herein. ^125I-HMGB1 binding was measured in RAW 264.7 cells plated in 24-well dishes for the times indicated in FIG. 5A. […] The specificity of binding was assessed as described in Example 1. […]

Molecule	TNF protein release over time ([1]; 10 μg/ml, 0-48 hours, compared to medium only (FIG. 2E))	TNF release, dose response ([1]; B box 0-10 μg/ml, 8 hours (FIG. 2A))	IL-6 release, dose response [2]	histology of liver [3]	125I-HMGB1 binding over time [4]
B box: Human HMGB1 mutant containing only the B box, SEQ ID NO:20 (protein, listed as Homo sapiens) FKDPNAPKRLPSAFFLFCSEYRPKIKGEHPGLSIGDVAKKLGEMWNNTAADDKQPYEKKAAKLKEKYEKDIAAY	stimulated TNF protein expression	increased with increased amounts of B box	IL-6 release from RAW 264.7 cells increased with increased amounts of B box	mild acute inflammatory responses, with some hepatocyte dropout and apoptosis	–
HMGB1: Recombinant full length human HMGB1, GST fusion system, SEQ ID NO:18; recombinant rat HMGB1 used in some experiments (protein, listed as Homo sapiens) MGKGDPKKPTGKMSSYAFFVQTCREEHKKKHPDASVNFSEFSKKCSERWKTMSAKEKGKFEDMAKADKARYEREMKTYIPPKGETKKKFKDPNAPKRLPSAFFLFCSEYRPKIKGEHPGLSIGDVAKKLGEMWNNTAADDKQPYEKKAAKLKEKYEKDIAAYRAKGKPDAAKKGVVKAEKSKKKKEEEEDEEDEEDEEEEEDEEDEEDEEEDDDDE	–	–	–	–	saturable first order binding kinetics
